Here are results for five molecules from US20210214434A1 (LABORATOIRE FRAN AIS DU FRACTIONNEMENT ET DES …, published 2021).

Experiment [1] deals with T1, human CD32aH receptor on transfected HEK cells (HEK-CD32) (human, UniProt P12318 34-317).
T1 construct: whole, on cells; also called hCD32aH; FcγRIIa (CD32a)
T1 sequence (looked up): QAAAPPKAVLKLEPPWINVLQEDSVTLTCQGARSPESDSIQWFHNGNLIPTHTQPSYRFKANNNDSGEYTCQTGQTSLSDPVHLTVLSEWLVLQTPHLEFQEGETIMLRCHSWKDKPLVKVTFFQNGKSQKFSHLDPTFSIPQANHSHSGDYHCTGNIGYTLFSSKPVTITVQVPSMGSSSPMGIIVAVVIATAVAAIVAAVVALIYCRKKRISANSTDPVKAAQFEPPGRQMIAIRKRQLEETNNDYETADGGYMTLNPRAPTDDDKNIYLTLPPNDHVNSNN
Put plainly: flow cytometry competition on HEK-CD32 cells, displacement of Rituxan-A488 (30 µg/ml). The procedure: (§1) The cells are then washed by adding 100 μl of PBS at pH 6 and centrifuged at 1700 rpm for 3 minutes at 4° C. The supernatant is then removed and 300 μl of cold PBS is added at pH 6.

Experiment [2] concerns the target T2, human CD32aR receptor on transfected HEK cells (HEK-CD32) (human, UniProt P12318 34-317).
T2 construct: whole, on cells; also called hCD32aR; FcγRIIa (CD32a)
T2 sequence (looked up): T1 sequence (looked up) with H134R
The description is as above. On the procedure: as §1

Experiment [3] has as its target T3, human CD64 receptor expressed by Jurkat cells (Jurkat-CD64) (human, UniProt P12314 16-374).
T3 construct: whole, on cells; also called hCD64; FcγRI (CD64)
Nature of the experiment: flow cytometry competition on Jurkat-CD64 cells, displacement of Rituxan-A488 (25 µg/ml). For orientation: Flow cytometry measures light scatter and fluorescence of single cells or particles in a stream.

Experiment [4] deals with T3, human CD64 receptor expressed by Jurkat …. Nature of the experiment: cell-based or functional assay.
The target of experiment [5] is T4, HisTag hCD16aV receptor (R&D System) (human, UniProt P08637 17-208).
T4 construct: Captured on anti-Penta-HIS biosensors; also called human FcγRIIIa-V; FcγRIIIa (CD16a); not shown: HisTag
Nature of the experiment: BLI (Octet), HisTag hCD16aV on anti-Penta-HIS biosensors, 1/1 model; SD 18.1. The procedure:
(§2) The molecules were tested at concentrations of 1000, 500, 250, 125, 62.5, 31, […] and 0 nM in kinetic buffer.
(§3) The association and dissociation curves (first 5 s) are used to calculate the kinetic constants of association (kon) and dissociation (koff) using a 1/1 association model. KD (nM) is then calculated […].

The target in experiment [6] is T5, human CD16aH receptor on transfected Jurkat cells (Jurkat-CD16aH) (human, UniProt P08637 17-254).
T5 construct: whole, on cells; also called hCD16aH; CD16a-F
Nature of the experiment: flow cytometry competition on Jurkat-CD16aH cells, displacement of mAb 3G8-PE (0.5 µg/ml). The procedure: The Jurkat-CD16aH cells are seeded in a 96-well plate (V bottom) at a concentration of 2.10⁵ cells per well.
The cells are then washed by adding […] of PBS at pH 6 and centrifuged at 1700 rpm for 3 minutes at 4° C. The supernatant is then removed and 300 μl of cold PBS is added at pH 6.

In a further experiment the target is T6, CD32b (UniProt P31994 43-310, limits assumed).
T6 construct: probably on transfected cells as for CD32a
T6 sequence (looked up): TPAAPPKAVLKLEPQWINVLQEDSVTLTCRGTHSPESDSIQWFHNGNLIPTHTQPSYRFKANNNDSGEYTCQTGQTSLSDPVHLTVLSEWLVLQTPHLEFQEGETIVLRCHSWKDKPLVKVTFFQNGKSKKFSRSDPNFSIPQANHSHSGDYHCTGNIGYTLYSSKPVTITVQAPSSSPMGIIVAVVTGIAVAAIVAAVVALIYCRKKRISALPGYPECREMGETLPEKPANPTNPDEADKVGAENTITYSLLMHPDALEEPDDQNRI
Put plainly: competition assay, protocol and competitor for CD32b not described.

Experiment [7] has as its target T7, human FcRn receptor expressed by Jurkat cells (Jurkat-FcRn) (human, UniProt P55899 24-365; P61769 21-119).
T7 construct: whole, on cells; also called hFcRn
Put plainly: flow cytometry competition on Jurkat-FcRn cells, displacement of Rituxan-A488 (25 µg/ml), pH 6. The procedure:
The Jurkat-FcRn cells are seeded in a 96-well plate (V bottom) at a concentration of 2.10⁵ cells per well.
as §1

Experiment [8] concerns the target T4, HisTag hCD16aV receptor (R&D System). Nature of the experiment: BLI (Octet), HisTag hCD16aV on anti-Penta-HIS biosensors, 1/1 model; SD 14.1.
In experiment [9] the target is complement proteins, in particular C1q (complement of the young rabbit serum used in the CDC test) (rabbit). Nature of the experiment: cell-based or functional assay.
Experiment [10] deals with biotinylated human FcRn receptor (hFcRn), immobilized on Streptavidin Biosensors (human, UniProt P55899 24-297; P61769 21-119, limits assumed, biotinylated (site not stated)). Nature of the experiment: BLI (Octet), biotinylated hFcRn on streptavidin biosensors, pH 6, 1/1 model; SD 0. On the procedure: The association and dissociation curves (first 10 s) are used to calculate the kinetic constants of association (kon) and dissociation (koff) using a 1/1 association model. KD (nM) is then calculated […].
(In BLI a coated tip is dipped into the sample, and binding shifts an interference pattern.)

The target of experiment [11] is T8, HisTag hCD32aH receptor (PX therapeutics) (human, UniProt P12318 34-217, limits assumed).
T8 construct: Captured on anti-Penta-HIS biosensors; also called FcγRIIa (CD32a); not shown: HisTag
T8 sequence (looked up): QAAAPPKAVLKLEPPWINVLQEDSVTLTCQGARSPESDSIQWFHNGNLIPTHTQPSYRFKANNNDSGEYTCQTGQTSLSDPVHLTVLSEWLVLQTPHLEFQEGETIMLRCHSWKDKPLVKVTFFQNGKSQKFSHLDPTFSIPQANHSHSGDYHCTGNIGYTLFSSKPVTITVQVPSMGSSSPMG
Nature of the experiment: BLI (Octet), HisTag hCD32aH on anti-Penta-HIS biosensors, 1/1 model; SD 29.7.

Experiment [12] has as its target T4, HisTag hCD16aV receptor (R&D System). Put plainly: BLI (Octet), HisTag hCD16aV on anti-Penta-HIS biosensors, 1/1 model; SD 10.7. The procedure: as §2, §3
Experiment [13] has the same target. Nature of the experiment: BLI (Octet), HisTag hCD16aV on anti-Penta-HIS biosensors, 1/1 model; SD 7.7. On the procedure:
as §2, §3

Positions count from the first letter of the chain named. Names may count otherwise. Bounds are passed on as bounds.

T7 sequence (P55899 24-365, chain 1 of 2): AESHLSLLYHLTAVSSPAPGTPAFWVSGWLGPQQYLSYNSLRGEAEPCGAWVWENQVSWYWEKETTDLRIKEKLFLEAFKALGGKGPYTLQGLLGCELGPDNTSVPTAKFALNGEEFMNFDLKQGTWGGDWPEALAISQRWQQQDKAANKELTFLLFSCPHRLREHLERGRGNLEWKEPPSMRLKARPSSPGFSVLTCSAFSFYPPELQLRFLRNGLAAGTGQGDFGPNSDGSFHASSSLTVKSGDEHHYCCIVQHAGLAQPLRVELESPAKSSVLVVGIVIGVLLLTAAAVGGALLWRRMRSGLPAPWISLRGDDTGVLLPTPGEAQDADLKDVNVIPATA
T7 sequence (P61769 21-119, chain 2 of 2): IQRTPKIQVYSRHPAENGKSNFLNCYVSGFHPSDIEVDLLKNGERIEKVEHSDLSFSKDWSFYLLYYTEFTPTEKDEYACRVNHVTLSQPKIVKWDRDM
T3 sequence (P12314 16-374): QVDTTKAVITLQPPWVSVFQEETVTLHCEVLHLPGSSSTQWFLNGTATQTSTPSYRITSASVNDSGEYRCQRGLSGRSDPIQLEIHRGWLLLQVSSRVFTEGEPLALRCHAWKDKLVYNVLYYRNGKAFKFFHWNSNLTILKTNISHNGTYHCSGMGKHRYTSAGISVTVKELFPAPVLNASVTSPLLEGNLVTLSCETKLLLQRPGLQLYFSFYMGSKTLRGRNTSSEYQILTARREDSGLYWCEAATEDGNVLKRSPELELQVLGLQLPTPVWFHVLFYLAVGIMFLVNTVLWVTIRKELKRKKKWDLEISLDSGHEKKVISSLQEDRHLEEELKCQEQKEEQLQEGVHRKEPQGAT
T4 sequence (P08637 17-208 F176V limits assumed): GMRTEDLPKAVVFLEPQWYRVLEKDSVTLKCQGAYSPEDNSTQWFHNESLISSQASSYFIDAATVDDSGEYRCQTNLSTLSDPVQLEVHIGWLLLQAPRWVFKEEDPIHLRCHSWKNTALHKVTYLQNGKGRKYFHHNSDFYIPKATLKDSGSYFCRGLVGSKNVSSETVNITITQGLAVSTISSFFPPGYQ
T5 sequence (P08637 17-254): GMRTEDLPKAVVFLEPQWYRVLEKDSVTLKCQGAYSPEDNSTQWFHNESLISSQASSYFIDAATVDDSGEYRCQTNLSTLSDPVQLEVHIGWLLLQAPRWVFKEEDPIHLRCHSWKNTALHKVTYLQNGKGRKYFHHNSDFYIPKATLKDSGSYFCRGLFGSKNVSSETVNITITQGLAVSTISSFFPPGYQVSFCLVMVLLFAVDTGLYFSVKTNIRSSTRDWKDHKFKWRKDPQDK
Sequence of biotinylated human FcRn receptor (hFcRn), immobilized on Streptavidin Biosensors (P55899 24-297 limits assumed, chain 1 of 2): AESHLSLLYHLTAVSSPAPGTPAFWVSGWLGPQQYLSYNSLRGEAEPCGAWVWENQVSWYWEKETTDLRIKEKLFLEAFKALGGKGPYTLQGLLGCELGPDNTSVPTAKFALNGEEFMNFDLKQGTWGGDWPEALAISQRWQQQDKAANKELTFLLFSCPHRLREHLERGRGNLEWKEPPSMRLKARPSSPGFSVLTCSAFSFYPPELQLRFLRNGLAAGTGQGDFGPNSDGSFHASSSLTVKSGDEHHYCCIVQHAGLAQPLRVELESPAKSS
Sequence of biotinylated human FcRn receptor (hFcRn), immobilized on Streptavidin Biosensors (P61769 21-119 limits assumed, chain 2 of 2): as the sequence (P61769 21-119, chain 2 of 2) above

B1: A3A-184AY_CHO (K334N/P352S/A378V/V397M/N434Y), Fc variant produced in CHO cells (other)
chain: DKTHTCPPCPAPELLGGPSVFLFPPKPKDTLMISRTPEVTCVVVDVSHEDPEVKFNWYVDGVEVHNAKTKPREEQYNSTYRVVSVLTVLHQDWLNGKEYKCKVSNKALPAPIENTISKAKGQPREPQVYTLSPSRDELTKNQVSLTCLVKGFYPSDIVVEWESNGQPENNYKTTPPMLDSDGSFFLYSKLTVDKSRWQQGNVFSCSVMHEALHYHYTQKSLSLSPGK
notes: also called Fc A3A-184AY CHO
Usually IC50 stands for the concentration that gives 50% inhibition. High values mean weaker potency in that assay, low ones greater potency in that assay. As usually defined, the Kd is the constant that tells how readily two partners part at equilibrium. A low value points to tighter binding. For the molecule B1, the concentration for half-maximal inhibition (IC50) in experiment [1] was 135 nM; in experiment [2] it was 176 nM; in experiment [3], 84 nM; in experiment [6], 262 nM; with CD32b, 57 nM; in [7], 13 nM. Also, in experiment [4], the “Inhibition of the secretion of IL-2 of the Jurkat cells transfected with CD64 (IC 25%, nM)” value (shortened to “Inhibition of the secretion … (IC 25%, nM)”) was found to be 448 nM. For the same molecule, the “Inhibition of the secretion of IL-2 of the Jurkat cells transfected with CD64 (IC 50%, nM)” value (“Inhibition of the secretion … (IC 50%, nM)” below) in experiment [4] stood at 600 nM. In experiment [5], this molecule registered a Kd of 80.3 nM.

B2: Fc variant A3A-184AY (HEK) (K334N/P352S/A378V/V397M/N434Y), produced in HEK293 cells (other)
chain: B1 chain
notes: also called Fc A3A 184AY (HEK); rFc A3A-184AY
Turning to B2, the Kd is 132 nM in [8], 7.8 nM in [10] and 313 nM in experiment [11]. In addition, in experiment [9], the “IC50 (read off the curve)” value is roughly 200 nM.

B3: A3A-184AY_TGg, Fc variant A3A-184AY produced in the transgenic goat (other)
chain: B1 chain
As for B3, the IC50 came out at 170 nM in experiment [1], 87 nM in experiment [3], 59 nM with CD32b and 12 nM in experiment [7]. Further, the Kd in experiment [12] was 51.2 nM.

B4: A3A-184EY_CHO (Y296W/K334N/P352S/A378V/V397M/N434Y), Fc variant produced in CHO cells (other)
chain: B1 chain with Y76W
notes: probably a misprint; also called Fc A3A-184EY CHO
For the molecule B4, in experiment [13], the Kd was 59.3 nM. Moreover, the IC50 in experiment [1] amounted to 147 nM; in experiment [2] it was 132 nM; in experiment [3] it was 70 nM; with CD32b, 55 nM; in experiment [7] it was 15 nM. Moreover, the “Inhibition of the secretion … (IC 25%, nM)” value in experiment [4] was 442 nM. In addition, the “Inhibition of the secretion … (IC 50%, nM)” value in [4] stood at 600 nM.

B5: Fc MST-HN fragment containing the mutations M252Y/S254T/T256E/H433K/N434F, produced in HEK-293 cells (other, UniProt P01857-1 104-330, looked up, name in EU numbering)
chain: B1 chain with M32Y, S34T, T36E, N114K, S132P, V158A, M177V, H213K, Y214F
In turn, B5 gave an IC50 in experiment [3] of 494 nM. Also, in experiment [4], the “Inhibition of the secretion … (IC 25%, nM)” value amounted to 1460 nM and the “Inhibition of the secretion … (IC 50%, nM)” value is less than 1950 nM. Further, in experiment [7], the IC50 is 14 nM.
